Measurements reported in patent publication US12139520B2 (priority 2020, dated 2024).
Bridge positions count the residues as written; N and C are the ends. Square brackets hold non-standard residues; d marks the D form. Ends that are not written are not given here. Hyp = O=C(O)[C@@H]1C[C@@H](O)CN1

B1: SEQ ID NO: 313 (peptide)
peptide: KCNTATCTVQWLAHQIYQFADKDKDNVAPPTNVGSNG[Hyp]-NH2
modifications: disulfide 2-7 (inferred); ends not checked
B2: SEQ ID NO: 307 (peptide)
peptide: RCNASTCTVNWLADQITQFSNKDKAQVSPPTEVGPNS[Hyp]-NH2
modifications: disulfide 2-7 (inferred); ends not checked
B3: SEQ ID NO: 317 (peptide)
peptide: KCNTATCTVQWLAHQIYQFTKDKDNVAPPTNVGSNG[Hyp]-NH2
modifications: disulfide 2-7 (inferred); ends not checked
B4: SEQ ID NO: 308 (peptide)
peptide: KCNTATCTVQWLAHAIYQFTDKDKDNVAPPTNVGSNG[Hyp]-NH2
modifications: disulfide 2-7 (inferred); ends not checked
B5: SEQ ID NO: 318 (peptide)
peptide: KCNTATCTVQWLAHQIYQFTDKDKDNVPPTNVGSNG[Hyp]-NH2
modifications: disulfide 2-7 (inferred); ends not checked
B6: SEQ ID NO: 311 (peptide)
peptide: GCRFGTCTVQWLANFLYQFTDKDKDNVAPRTNVGPQGY
B7: SEQ ID NO: 316 (peptide)
peptide: KCNTATCTVQWLAHQIYQFTDKDKDNVAPATNVGSNG[Hyp]-NH2
modifications: disulfide 2-7 (inferred); ends not checked
B8: SEQ ID NO: 312 (peptide)
peptide: KCNTATCTVQWLAHQIYQFTDKDKDNVAPRTKVGSNG[Hyp]-NH2
modifications: disulfide 2-7 (inferred); ends not checked
B9: SEQ ID NO: 314 (peptide)
peptide: KCNTATCTVQWLAHQIYQFTDKDKANVAPPTNVGSNG[Hyp]-NH2
modifications: disulfide 2-7 (inferred); ends not checked
B10: SEQ ID NO: 32 (peptide)
peptide: RCQTSTCTVARLAEQIAQYTDKDKDQVAPPTNVGSNS[Hyp]-NH2
modifications: disulfide 2-7 (inferred); ends not checked
B11: SEQ ID NO: 310 (peptide)
peptide: KCNTSTCTVAWLADQITQFSDKDKANVSPPTEVGPNS[Hyp]-NH2
modifications: disulfide 2-7 (inferred); ends not checked
B12: SEQ ID NO: 309 (peptide)
peptide: KCNTATCTVQWLAHQIAQFTDKDKDNVAPPTNVGSNG[Hyp]-NH2
modifications: disulfide 2-7 (inferred); ends not checked
B13: SEQ ID NO: 315 (peptide)
peptide: KCNTATCTVQWLAHQIYQFTDKDKDNAAPPTNVGSNG[Hyp]-NH2
modifications: disulfide 2-7 (inferred); ends not checked
B14: SEQ ID NO: 306 (peptide)
peptide: KCNTSTCTVAWLADQITQFSNKDKAQVSPPTEVGPNS[Hyp]-NH2
modifications: disulfide 2-7 (inferred); ends not checked

Target: hAM1R (human, UniProt Q16602)
Test: cell-based or functional assay

hAM1R EC50 (cAMP) [nM] | Binder
> 5000 | B1
> 5000 | B2
> 5000 | B3
> 5000 | B4
> 5000 | B5
> 5000 | B6
> 5000 | B7
> 5000 | B8
> 5000 | B9
> 5000 | B10
> 5000 | B11
> 5000 | B12
> 5000 | B13
> 5000 | B14

Target: T1, hAMY3R (human, UniProt P30988)
T1 sequence 1: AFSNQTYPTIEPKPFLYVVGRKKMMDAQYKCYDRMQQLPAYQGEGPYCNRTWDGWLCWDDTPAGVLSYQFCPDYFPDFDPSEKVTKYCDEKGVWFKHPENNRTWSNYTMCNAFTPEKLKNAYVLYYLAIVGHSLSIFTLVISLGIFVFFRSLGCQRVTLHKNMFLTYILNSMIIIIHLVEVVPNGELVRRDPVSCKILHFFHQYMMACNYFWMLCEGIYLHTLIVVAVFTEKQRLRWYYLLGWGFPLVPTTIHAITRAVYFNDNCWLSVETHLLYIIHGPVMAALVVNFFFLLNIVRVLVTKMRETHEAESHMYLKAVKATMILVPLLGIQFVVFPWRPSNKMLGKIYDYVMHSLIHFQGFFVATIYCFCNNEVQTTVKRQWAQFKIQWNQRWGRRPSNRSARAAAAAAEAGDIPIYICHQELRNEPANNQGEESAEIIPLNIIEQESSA
T1 sequence 2: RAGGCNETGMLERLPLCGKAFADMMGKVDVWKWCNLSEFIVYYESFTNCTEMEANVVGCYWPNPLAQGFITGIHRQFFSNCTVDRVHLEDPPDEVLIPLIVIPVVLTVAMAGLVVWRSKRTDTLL
Test: cell-based or functional assay

hAMY3R EC50 (cAMP) [nM] | Binder
0.004 | B1
0.01 | B2
0.004 | B3
0.014 | B4
0.009 | B5
0.06 | B6
0.012 | B7
0.012 | B8
0.008 | B9
0.008 | B10
0.003 | B11
0.025 | B12
0.012 | B13
0.003 | B14
